Laboratory results published in patent publication US20220267443A1.

Target: CTLA-4-Ig
Assay: -; modified from Xu et al., JI 2012

| Kd [nM] | Substance |
| --- | --- |
| 0.3 | CD80-Fc-His |
| 3.6 | CD86-Fc-His |
